The values below come from article PMC6854463, “Structural Basis for Broad HIV-1 Neutralization by the MPER-Specific Human Broadly Neutralizing Antibody LN01” (Cell Host & Microbe, 2019).

Residue numbers refer to the chain shown, from its start. Several values for one entry are separate records, joined by “and”; a condition that tells them apart may be missing. Equal entries are not always repeated.

In general, Kd refers to the constant that tells how readily two partners part at equilibrium. Read a high Kd as weaker binding.

Holding throughout (conditions): both partners purified
In assay [1] the target is T1, MPER-TM2 (gp41 residues 630-711, containing the complete TM region) (HIV-1 group M; Env Q74599 (HXB2-like), …, UniProt Q74599).
T1 construct: not shown: His-tag, N-terminal, cleaved; flag-tag, N-terminal, cleaved
Kind of assay: BLI; Octet Red; biotinylated IgG on Streptavidin biosensors; MPER-TM2 in 25 mM HEPES pH 7.5, 150 mM NaCl, 0.1 % Fos-Choline-12, 25°C; global fit 1:1 model or steady state analysis. (In general: In BLI a coated tip is dipped into the sample, and binding shifts an interference pattern.)

In assay [2] the target is T1, MPER-TM2 (gp41 residues 630-711, …). Kind of assay: SPR.
The target in assay [3] is T2, MPER-TM1 peptide (gp41 residues 671-689) (HIV-1, strain  (6SNC maps to …)).
T2 construct: also called gp41 MPER-TM1; source: synthetic peptide (Smart Bioscience, Grenoble)
Kind of assay: SPR.

B1: LN01 gH/UCA (antibody, V domains shown)
VH: QLQLQESGPGLVKPSETLSLTCTVSGGSISSSSYYWGWIRQPPGKGLEWIGSIYYSGSTYYNPSLKSRVTISVDTSKNQFSLKLSSVTAADTAVYYCVRMPSHGFWSTSFSYWYFDLWGRGTLVTVSS
VL: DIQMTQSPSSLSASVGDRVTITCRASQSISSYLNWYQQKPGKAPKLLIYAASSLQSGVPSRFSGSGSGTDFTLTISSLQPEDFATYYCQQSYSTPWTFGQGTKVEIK
notes: IgG; source: Expi293F, transient transfection (PEI), purified by protein A chromatography
Regarding B1, in assay [1], binding was characterised by a dissociation constant (Kd) of 4700 ± 1700 nM.

B2: LN01 UCA/gL (antibody, V domains shown)
VH: B1 VH with T108G, S109Y
VL: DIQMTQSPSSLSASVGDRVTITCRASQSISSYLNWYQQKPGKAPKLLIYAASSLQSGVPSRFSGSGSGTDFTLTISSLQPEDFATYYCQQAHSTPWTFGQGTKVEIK
notes: as for B1
Consider B2, for which, in assay [1], the binding result is reported as “no binding”.

B3: LN01 gH/gL (antibody, V domains shown)
VH: B1 VH
VL: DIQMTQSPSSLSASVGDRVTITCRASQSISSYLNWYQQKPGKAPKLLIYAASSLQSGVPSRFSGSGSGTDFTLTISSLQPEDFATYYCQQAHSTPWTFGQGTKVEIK
notes: as for B1
In assay [1], B3 gave a Kd of 1400 nM.

B4: LN01 UCA/sL (antibody, V domains shown)
VH: B1 VH with T108G, S109Y
VL: DIQMTQSPSSLSASVGDKVTITCRASQSVTKYLNWYQFKTGQAPRILIYGTYTLLSGVSPRFSGAGSGSLYTLTITNIQPEDFATYYCQQAHSTPWTFGQGTHVAAN
notes: as for B1
On to B4, for which the binding result in assay [1] was “no binding”.

B5: LN01 UCA/UCA (antibody, V domains shown)
VH: B1 VH with T108G, S109Y
VL: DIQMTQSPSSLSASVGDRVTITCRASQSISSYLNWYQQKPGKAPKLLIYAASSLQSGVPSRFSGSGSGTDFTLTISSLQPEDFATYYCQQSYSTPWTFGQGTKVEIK
notes: also called the UCA version of LN01; source: Expi293F, transient transfection (PEI), purified by protein A chromatography
B5: the binding result in assay [1] is “no binding”.

B6: LN01 gH/sL (antibody, V domains shown)
VH: B1 VH
VL: B4 VL
notes: as for B1
In assay [1], B6 registered a dissociation constant (Kd) of 6.2 ± 0.02 nM.

B7: LN01 sH/gL (antibody, V domains shown)
VH: QVQLEESGPGLVQPWGTLSLTCRVSGDSVSNDNYYWAWIRQTPGRELQVIGTIYYSGTTYYNPSLRNRVTISLDKSVNVVSLRLGSVSAADTAQYYCVRMPSHGFWSTSFSYWYFDLWGRGHFVAVSW
VL: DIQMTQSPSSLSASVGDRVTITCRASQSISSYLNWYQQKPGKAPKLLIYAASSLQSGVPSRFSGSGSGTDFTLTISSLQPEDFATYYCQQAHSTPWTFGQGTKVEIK
notes: as for B1
As to B7, the Kd in assay [1] is 453 ± 82 nM.

B8: LN01 recombinant IgG1 monoclonal antibody (antibody, V domains shown)
VH: B7 VH
VL: B4 VL
notes: also called LN01 IgG1; IgG1 LN01 antibody; source: Expi293F, transient transfection (PEI), purified by protein A chromatography
In the case of B8, the Kd is 13 nM in assay [2]; 161 nM and 170 nM in assay [3]; 2.3 ± 0.01 nM in assay [1].

B9: LN01 sH/gL-FR (antibody, V domains shown)
VH: B7 VH
VL: DIQMTQSPSSLSASVGDRVTITCRASQSVTKYLNWYQQKPGKAPKLLIYGTYSLQSGVPSRFSGSGSGTDFTLTISSLQPEDFATYYCQQAHSTPWTFGQGTKVEIK
notes: as for B1
Turning to B9, in assay [1], binding was put at a Kd of 7 ± 0.03 nM.
